This is an account of results in US11789012B2, “Cell death biomarker” (UCL Business PLC, priority 2016, dated 2023).

One experiment deals with H2461. As to the kind of experiment: rTRAIL response, viability assay, H2461. The experiment is classed as cell-based, Human. To be noted: BAP1 Deletion - Frameshift, heterozygous. The protocol:
(§1) Manual “single dose” combination screening was undertaken using 96 well formats. Cells were plated on day 1 in previously optimized seeding densities in 180 μl if media. On day 2 20 μl of a 10× concentration of […] was added. Cells were then allowed to grow for 72 hrs or 6 days and fixed at the end of the assay. Drug wells were compared to DMSO treated control wells.
(§2) Single agent high throughput 5 point viability screening was undertaken in 384 well formats using robotic liquid handling with fixing with 4% paraformaldehyde and staining for viability with Syto60 nucleic acid dye (Invitrogen) (see below). Single agent dose response curves were derived for each library of 85-95 drugs according to the experiment used, and log IC50 or area under the curve (AUC) metrics were derived for each library compound in each cell line according to a previously derived formula [18].
(§3) Adherent cell lines were seeded 24 hours before drugging. Cells were trypsinised and counted before seeding at the optimal density for the size of well (96 or 384) and duration of assay. 72 hr after drug treatment cells were fixed with 4% paraformaldehyde for 30 minutes. […] Quantification of fluorescent signal was achieved using excitation/emission wavelength of 630/695 […].

The test system of another experiment is H2722. As to the kind of experiment: rTRAIL response, viability assay, H2722. The following applies: BAP1 HomDel, homozygous. The experiment is classed as cell-based, Human. How it is done: as §1, §2, §3
The subject of the next experiment is H2795. As to the kind of experiment: rTRAIL response, viability assay, H2795. Type of experiment: cell-based, Human. The following applies: BAP1 Essential Splice, heterozygous. How it is done:
as §1, §2, §3

The test system of another experiment is H2804. As to the kind of experiment: rTRAIL response, viability assay, H2804. The experiment is classed as cell-based, Human. To be noted: BAP1 Essential Splice, heterozygous. The protocol: as §1, §2, §3
The subject of a further experiment is NCI-H2452. As to the kind of experiment: rTRAIL response, viability assay, NCI-H2452. The experiment is classed as cell-based, Human. The following applies: BAP1 Substitution - Missense, homozygous. How it is done: as §1, §2, §3
The next experiment concerns NCI-H28. Briefly: rTRAIL response, viability assay, NCI-H28. Type of experiment: cell-based, Human. The following applies: BAP1 Essential Splice, heterozygous. The protocol: as §1, §2, §3
A further experiment relates to NCI-H226. As to the kind of experiment: rTRAIL response, viability assay, NCI-H226. Type of experiment: cell-based, Human. To be noted: BAP1 HomDel, homozygous. The protocol:
as §1, §2, §3

The subject of the next experiment is H2373. Briefly: rTRAIL response, viability assay, H2373. The following applies: BAP1 Wild-type. The experiment is classed as cell-based, Human. The protocol: as §1, §2, §3
The test system of the next experiment is H2869. Briefly: rTRAIL response, viability assay, H2869. Type of experiment: cell-based, Human. The following applies: BAP1 Wild-type. The protocol:
as §1, §2, §3

In the next experiment the test system is MSTO-211H. Briefly: rTRAIL response, viability assay, MSTO-211H. The experiment is classed as cell-based, Human. The following applies: BAP1 Wild-type. The protocol:
as §1, §2, §3

The subject of experiment [1] is control normal mesothelial cell line MET-5A. Briefly: 6-day viability assay, normal mesothelial control line. The experiment is classed as cell-based. To be noted: rTRAIL 40 ng/ml. How it is done: FIG. 2A is a volcano plot showing drug-genome interactions in MPM. […] The Y-axis denotes adjusted p-Value, X-axis denotes effect size. Size of circle indicates number of mutant lines in cohort tested. […] Met 5a is a mesothelial normal control line. FIG. 2C is a scatter plot showing AUC following 6 day viability assay in response to 40 ng/ml rTRAIL (normalised to DMSO treated control) in cell lines discretized by BAP1 mutation status. […] Two-tailed t-test, p=0.015.
as §1
Adherent cell lines were seeded 24 hours before drugging. Cells were trypsinised and counted before seeding at the optimal density for the size of well (96 or 384) and duration of assay. 72 hr after drug treatment cells were fixed with 4% paraformaldehyde for 30 minutes. Following two washes of dH2O 100 μl Syto60 nucleic acid stain (Invitrogen) was added at a final concentration of 1 μM and plates […] for 1 hr at room temperature. Quantification of fluorescent signal was achieved using excitation/emission wavelength of 630/695 […].

In experiment [2] the test system is BAP1 mutant cell lines (H2722, H2461, H28 and H2731). As to the kind of experiment: Annexin V/DAPI cell death assay, BAP1 mutant cell lines. Type of experiment: cell-based, Human. To be noted: TRAIL 0-1000 ng/ml, 24 hours. The protocol:
MPM cell lines were treated with a dose range from 0.5 ng/ml to 100 ng/ml and cell viability was measured using Syto-60 assay. Based on their cell viability, the cell lines were classified into resistant (red), partially sensitive (orange) and sensitive (green). Cell lines were western blotted to probe the expression of BAP1 protein expression. […] Three BAP1 wild-type cell lines (MPP-89, H2869 & H2818) and four BAP1 mutant cell lines (H2722, H2461, H28 and H2731) were treated with TRAIL (0-1000 ng/ml) for 24 hours and cell death quantified using an Annexin V/DAPI cell death assay.
Adherent mesothelioma cell lines were plated in a 96 well plate at approximately 10000 cells per well. Cells were plated and given 1 day to adhere at which time drug was added. After 48 hrs media, including floating cells, was collected from each well. The remaining adherent cells were washed with PBS and mobilised with 0.05% trypsin in EDTA. All cells were collected into tubes containing the previously removed media and pelleted by centrifugation (300 g, 5 minutes). […] Annexin V−/DAPI− cells were judged to be viable, AnnexinV+/DAPI− cells were considered to be undergoing apoptosis (early apoptotic phase), and Annexin V+/DAPI+ cells were considered late apoptotic or necrotic, and recorded as dead.

A further experiment relates to RCC10RGB. As to the kind of experiment: rTRAIL viability, renal cell cancer cell line RCC10RGB. Type of experiment: cell-based. The following applies: BAP1 missense mutation. From the text: (§4) FIG. 8A is a graph showing the effect of rTRAIL on the viability of various cancer cell lines. Bladder (RT4) and Breast (HCC1187) cancer cell lines with nonsense mutations in BAP1 show sensitivity to rTRAIL while renal cell cancer cell lines (769P & RCC10RGB) with missense mutation and wild-type renal (BB65RCC) and bladder cancer (SW1710) cell lines are resistant to TRAIL.

The next experiment deals with SW1710. As to the kind of experiment: rTRAIL viability, bladder cancer cell line SW1710. Type of experiment: cell-based. To be noted: BAP1 wild-type.
Excerpt: as §4

The subject of experiment [3] is mutated BAP1 xenografts (H226 C91A). As to the kind of experiment: Xenograft mouse model, H226 BAP1 and H226 C91A tumours. The experiment is classed as in vivo, mice. From the text:
FIG. 9A is a protocol of an in vivo experiment. FIG. 9B is a box plot showing the weight of tumours extracted from mice injected with mutant or wild-type BAP1-expressing cells after treatment with rTRAIL. […] FIG. 9C is a graph showing that TRAIL treatment reduces the tumour burden (measured by bioluminescence) of mutated BAP1 xenografts when compared to TRAIL treated wild-type BAP1 xenografts or untreated BAP1 mutated and BAP1 wild-type xenografts.
Groups of 8 week old NOD.CB17-Prkdcscid/NcrCrl (NOD SCID) mice (Charles River) were injected on each flank with 1 million cells of luciferase transduced mesothelioma cell lines (H226 BAP and H226 C91A) in a 1:1 mixture of matrigel and media. When tumours were established, as assessed by bioluminescent imaging (IVIS), at 14 days following injection of tumour cells, treatment was began with either vehicle or isoleucine zipper TRAIL (izTRAIL). Either vehicle or izTRAIL were given intraperitoneally once daily at a dose of 600 mcg for the duration of the experiment. Tumour size was assessed at days 0, 13, 19, 26 and 41 using bioluminescent imaging (IVIS). Mice were culled at 42 days and tumours removed and weighed. Six mice per group were treated. Researchers were not blinded in these experiments.

B1: rTRAIL: recombinant protein that activates the TRAIL pathway by binding to TRAIL-R1 (DR 4) and TRAIL-R2 (DR 5) (protein, UniProt P50591 1-281, looked up)
Tumor necrosis factor ligand …: MAMMEVQGGPSLGQTCVLIVIFTVLLQSLCVAVTYVYFTNELKQMQDKYSKSGIACFLKEDDSYWDPNDEESMNSPCWQVKWQLRQLVRKMILRTSEETISTVQEKQQNISPLVRERGPQRVAAHITGTRGRSNTLSSPNSKNEKALGRKINSWESSRSGHSFLSNLHLRNGELVIHEKGFYYIYSQTYFRFQEEIKENTKNDKQMVQYIYKYTSYPDPILLMKSARNSCWSKDAEYGLYSIYQGGIFELKENDRIFVSVTNEHLIDMDHEASFFGAFLVG
For the molecule B1, the rTRAIL response result is given as “Sensitive” in the experiment on H2461; “Resistant” with H2722; “Sensitive*” in the experiment with H2795; “Sensitive” in the experiment with H2804; “Resistant” with NCI-H2452; “Sensitive” with NCI-H28. The rTRAIL response result in the experiment with NCI-H226 is on record as “Sensitive**”; with H2373 it was “Resistant”; with H2869, “Resistant”; in the experiment on MSTO-211H, “Sensitive**”. Also, the “effect on cell viability” value in [1] is “no significant effect on cell viability”. For the same molecule, in experiment [2], the “fraction of cells stained with Annexin V” value is given as “increased fraction of cells stained with the apoptotic marker Annexin V”. The “response to TRAIL (viability)” value in the experiment on RCC10RGB and with SW1710 was “resistant” throughout. Further, the “tumour weight at end of experiment” value in [3] (mutated BAP1 tumours vs wild-type BAP1 tumours with TRAIL or vehicle-treated tumours, intraperitoneally once daily 600 mcg) is listed as “significantly less”. The “tumour burden (bioluminescence)” value in experiment [3] (mutated BAP1 xenografts vs wild-type with TRAIL or vehicle-treated xenografts, tracked over 4 weeks) was “significantly less”.
